Experimental data published in the supplement of paper PMC9112550, “Optimization of the antimicrobial peptide Bac7 by deep mutational scanning” (BMC Biology, 2022).

Test system: Escherichia coli TOP10
Assay: shrunken log2 fold change of peptide-encoding DNA abundance (4.5 h post-induction vs induction); higher = less antimicrobial activity (less host growth inhibition)
Conditions: time post-induction: 4.5 h; library: site-saturation at positions 5, 18, 19, 20
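Further: peptides expressed intracellularly from a pBAD plasmid library in pooled LB shake-flask culture, induced with 0.3% L-arabinose, DNA abundance read by NGS, three biological replicates, DESeq2 with apeglm shrinkage.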

RRIRSRPPRLPRPRPRPEEFPRP
shrunken log2 fold change: -0.00122

RRIRSRPPRLPRPRPRPEEQPRP
shrunken log2 fold change: 0.64

RRIRSRPPRLPRPRPRPEFMPRP
shrunken log2 fold change: 0.135

RRIRSRPPRLPRPRPRPEFYPRP
shrunken log2 fold change: -0.131

RRIRSRPPRLPRPRPRPEGAPRP
shrunken log2 fold change: 1.95

RRIRSRPPRLPRPRPRPEGGPRP
shrunken log2 fold change: 0.325

RRIRSRPPRLPRPRPRPEGPPRP
shrunken log2 fold change: 0.114

RRIRSRPPRLPRPRPRPEHQPRP
shrunken log2 fold change: 0.163

RRIRSRPPRLPRPRPRPEIWPRP
shrunken log2 fold change: 0.456

RRIRSRPPRLPRPRPRPEKIPRP
shrunken log2 fold change: -0.0469

RRIRSRPPRLPRPRPRPEKMPRP
shrunken log2 fold change: 0.061

RRIRSRPPRLPRPRPRPEKTPRP
shrunken log2 fold change: 0.125

RRIRSRPPRLPRPRPRPEKVPRP
shrunken log2 fold change: -0.1

RRIRSRPPRLPRPRPRPELHPRP
shrunken log2 fold change: 0.249

RRIRSRPPRLPRPRPRPELIPRP
shrunken log2 fold change: -0.123

RRIRSRPPRLPRPRPRPEMLPRP
shrunken log2 fold change: 0.536

RRIRSRPPRLPRPRPRPEMVPRP
shrunken log2 fold change: 0.0797

RRIRSRPPRLPRPRPRPENRPRP
shrunken log2 fold change: -0.114

RRIRSRPPRLPRPRPRPENVPRP
shrunken log2 fold change: 0.0202

RRIRSRPPRLPRPRPRPEPPPRP
shrunken log2 fold change: 0.662

RRIRSRPPRLPRPRPRPEPRPRP
shrunken log2 fold change: 0.586

RRIRSRPPRLPRPRPRPESRPRP
shrunken log2 fold change: -0.0244

RRIRSRPPRLPRPRPRPETWPRP
shrunken log2 fold change: -0.0382

RRIRSRPPRLPRPRPRPEVYPRP
shrunken log2 fold change: 0.104

RRIRSRPPRLPRPRPRPEWYPRP
shrunken log2 fold change: 0.341

RRIRSRPPRLPRPRPRPEYGPRP
shrunken log2 fold change: -0.346

RRIRSRPPRLPRPRPRPFANPRP
shrunken log2 fold change: -0.0026

RRIRSRPPRLPRPRPRPFATPRP
shrunken log2 fold change: 0.461

RRIRSRPPRLPRPRPRPFEGPRP
shrunken log2 fold change: 0.123

RRIRSRPPRLPRPRPRPFERPRP
shrunken log2 fold change: -0.00192

RRIRSRPPRLPRPRPRPFESPRP
shrunken log2 fold change: -0.258

RRIRSRPPRLPRPRPRPFEYPRP
shrunken log2 fold change: -0.115

RRIRSRPPRLPRPRPRPFFDPRP
shrunken log2 fold change: 0.192

RRIRSRPPRLPRPRPRPFFRPRP
shrunken log2 fold change: -0.0536

RRIRSRPPRLPRPRPRPFGPPRP
shrunken log2 fold change: 0.132

RRIRSRPPRLPRPRPRPFHGPRP
shrunken log2 fold change: -0.00545

RRIRSRPPRLPRPRPRPFHQPRP
shrunken log2 fold change: -0.418

RRIRSRPPRLPRPRPRPFHRPRP
shrunken log2 fold change: -0.154

RRIRSRPPRLPRPRPRPFHYPRP
shrunken log2 fold change: -0.429

RRIRSRPPRLPRPRPRPFIEPRP
shrunken log2 fold change: -0.285

RRIRSRPPRLPRPRPRPFKGPRP
shrunken log2 fold change: 0.112

RRIRSRPPRLPRPRPRPFKIPRP
shrunken log2 fold change: -0.466

RRIRSRPPRLPRPRPRPFKQPRP
shrunken log2 fold change: -0.468

RRIRSRPPRLPRPRPRPFLHPRP
shrunken log2 fold change: -0.174

RRIRSRPPRLPRPRPRPFMCPRP
shrunken log2 fold change: -0.255

RRIRSRPPRLPRPRPRPFMPPRP
shrunken log2 fold change: -0.149

RRIRSRPPRLPRPRPRPFMSPRP
shrunken log2 fold change: 0.00606

RRIRSRPPRLPRPRPRPFNYPRP
shrunken log2 fold change: 0.0477

RRIRSRPPRLPRPRPRPFPIPRP
shrunken log2 fold change: 0.0325

RRIRSRPPRLPRPRPRPFQEPRP
shrunken log2 fold change: -0.0528

RRIRSRPPRLPRPRPRPFQNPRP
shrunken log2 fold change: -0.3

RRIRSRPPRLPRPRPRPFQYPRP
shrunken log2 fold change: -0.177

RRIRSRPPRLPRPRPRPFSDPRP
shrunken log2 fold change: -0.126

RRIRSRPPRLPRPRPRPFTEPRP
shrunken log2 fold change: -0.0824

RRIRSRPPRLPRPRPRPFTHPRP
shrunken log2 fold change: -0.0568

RRIRSRPPRLPRPRPRPFTNPRP
shrunken log2 fold change: -0.0617

RRIRSRPPRLPRPRPRPFWEPRP
shrunken log2 fold change: 0.0122

RRIRSRPPRLPRPRPRPFWWPRP
shrunken log2 fold change: 0.309

RRIRSRPPRLPRPRPRPFYYPRP
shrunken log2 fold change: -0.615

RRIRSRPPRLPRPRPRPGAKPRP
shrunken log2 fold change: 0.513

RRIRSRPPRLPRPRPRPGALPRP
shrunken log2 fold change: 0.324

RRIRSRPPRLPRPRPRPGARPRP
shrunken log2 fold change: 0.492

RRIRSRPPRLPRPRPRPGCDPRP
shrunken log2 fold change: 0.332

RRIRSRPPRLPRPRPRPGCKPRP
shrunken log2 fold change: -0.00169

RRIRSRPPRLPRPRPRPGCMPRP
shrunken log2 fold change: 0.0917

RRIRSRPPRLPRPRPRPGDHPRP
shrunken log2 fold change: -0.338

RRIRSRPPRLPRPRPRPGEPPRP
shrunken log2 fold change: -0.054

RRIRSRPPRLPRPRPRPGFNPRP
shrunken log2 fold change: -0.038

RRIRSRPPRLPRPRPRPGHTPRP
shrunken log2 fold change: 0.0898

RRIRSRPPRLPRPRPRPGIDPRP
shrunken log2 fold change: -0.0173

RRIRSRPPRLPRPRPRPGIQPRP
shrunken log2 fold change: 0.0642

RRIRSRPPRLPRPRPRPGKAPRP
shrunken log2 fold change: 0.188

RRIRSRPPRLPRPRPRPGMVPRP
shrunken log2 fold change: 0.23

RRIRSRPPRLPRPRPRPGPYPRP
shrunken log2 fold change: -0.325

RRIRSRPPRLPRPRPRPGREPRP
shrunken log2 fold change: 0.325

RRIRSRPPRLPRPRPRPGRMPRP
shrunken log2 fold change: 0.167

RRIRSRPPRLPRPRPRPGSGPRP
shrunken log2 fold change: 0.32

RRIRSRPPRLPRPRPRPGVGPRP
shrunken log2 fold change: 0.617

RRIRSRPPRLPRPRPRPGVVPRP
shrunken log2 fold change: 0.295

RRIRSRPPRLPRPRPRPGVYPRP
shrunken log2 fold change: -0.0749

RRIRSRPPRLPRPRPRPGWNPRP
shrunken log2 fold change: 0.0897

RRIRSRPPRLPRPRPRPHAPPRP
shrunken log2 fold change: 0.27

RRIRSRPPRLPRPRPRPHAQPRP
shrunken log2 fold change: 0.0587

RRIRSRPPRLPRPRPRPHDFPRP
shrunken log2 fold change: -0.0847

RRIRSRPPRLPRPRPRPHEDPRP
shrunken log2 fold change: 0.132

RRIRSRPPRLPRPRPRPHEGPRP
shrunken log2 fold change: 0.0242

RRIRSRPPRLPRPRPRPHFEPRP
shrunken log2 fold change: -0.325

RRIRSRPPRLPRPRPRPHFKPRP
shrunken log2 fold change: -0.383

RRIRSRPPRLPRPRPRPHGHPRP
shrunken log2 fold change: -0.167

RRIRSRPPRLPRPRPRPHGPPRP
shrunken log2 fold change: -0.0864

RRIRSRPPRLPRPRPRPHHCPRP
shrunken log2 fold change: -0.0623

RRIRSRPPRLPRPRPRPHIKPRP
shrunken log2 fold change: -0.255

RRIRSRPPRLPRPRPRPHIMPRP
shrunken log2 fold change: -0.393

RRIRSRPPRLPRPRPRPHKDPRP
shrunken log2 fold change: -0.534

RRIRSRPPRLPRPRPRPHKHPRP
shrunken log2 fold change: -0.411

RRIRSRPPRLPRPRPRPHKQPRP
shrunken log2 fold change: -0.0702

RRIRSRPPRLPRPRPRPHKVPRP
shrunken log2 fold change: -0.259

RRIRSRPPRLPRPRPRPHLNPRP
shrunken log2 fold change: -0.158

RRIRSRPPRLPRPRPRPHLRPRP
shrunken log2 fold change: 0.092

RRIRSRPPRLPRPRPRPHLTPRP
shrunken log2 fold change: -0.0599

RRIRSRPPRLPRPRPRPHMCPRP
shrunken log2 fold change: -0.425

RRIRSRPPRLPRPRPRPHMIPRP
shrunken log2 fold change: -0.961

RRIRSRPPRLPRPRPRPHMYPRP
shrunken log2 fold change: -0.37

RRIRSRPPRLPRPRPRPHNVPRP
shrunken log2 fold change: -0.436

RRIRSRPPRLPRPRPRPHNYPRP
shrunken log2 fold change: -0.372

RRIRSRPPRLPRPRPRPHQAPRP
shrunken log2 fold change: -0.161

RRIRSRPPRLPRPRPRPHQNPRP
shrunken log2 fold change: -0.0421

RRIRSRPPRLPRPRPRPHQTPRP
shrunken log2 fold change: -0.066

RRIRSRPPRLPRPRPRPHRNPRP
shrunken log2 fold change: -0.489
